Reference: paper PMC9798004 (Frontiers in Psychiatry, 2022)

Assays:
Assay in all cases: PathHunter β-arrestin assay
Format in all cases: cell-based
BDKRB1 = target: T1, BDKRB1 (Homo sapiens, UniProt P46663); details: screen, control agonist; CHO, 37C, 2HR
T1 construct: purchased Eurofins DiscoverX (PathHunter gpcrMAX)

NPSR1b = target: T2, NPSR1b (Homo sapiens, UniProt Q6W5P4); details: screen, control agonist; U2OS, 37C, 2HR
T2 construct: purchased Eurofins DiscoverX (PathHunter gpcrMAX)
T2 sequence (Q6W5P4 1-377 isoform Q6W5P4-4): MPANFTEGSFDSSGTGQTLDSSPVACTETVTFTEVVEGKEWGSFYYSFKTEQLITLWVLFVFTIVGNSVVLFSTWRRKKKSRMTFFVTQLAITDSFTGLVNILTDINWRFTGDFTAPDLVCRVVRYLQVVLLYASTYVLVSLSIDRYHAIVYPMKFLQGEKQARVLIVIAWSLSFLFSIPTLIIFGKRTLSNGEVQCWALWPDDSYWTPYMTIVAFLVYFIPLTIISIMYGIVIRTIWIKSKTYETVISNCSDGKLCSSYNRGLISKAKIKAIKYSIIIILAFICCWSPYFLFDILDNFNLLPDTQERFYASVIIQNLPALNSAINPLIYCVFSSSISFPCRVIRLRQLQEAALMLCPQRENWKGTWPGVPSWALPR

NPY1R = target: T3, NPY1R (Homo sapiens, UniProt P25929); details: screen, control agonist; CHO, RT, 2HR
T3 construct: purchased Eurofins DiscoverX (PathHunter gpcrMAX)
T3 sequence (P25929 1-384): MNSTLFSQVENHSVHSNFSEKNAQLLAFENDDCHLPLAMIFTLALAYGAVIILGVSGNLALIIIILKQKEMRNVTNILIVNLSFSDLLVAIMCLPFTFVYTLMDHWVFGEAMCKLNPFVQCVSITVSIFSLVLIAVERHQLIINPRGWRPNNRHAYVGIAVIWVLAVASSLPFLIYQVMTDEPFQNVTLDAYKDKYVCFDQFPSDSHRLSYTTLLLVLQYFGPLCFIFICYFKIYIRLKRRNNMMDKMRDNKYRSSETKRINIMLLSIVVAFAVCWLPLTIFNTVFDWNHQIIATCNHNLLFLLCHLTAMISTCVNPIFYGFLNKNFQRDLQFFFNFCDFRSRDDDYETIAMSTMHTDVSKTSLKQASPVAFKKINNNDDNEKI

PRLHR = target: T4, PRLHR (Homo sapiens, UniProt P49683); details: screen, control agonist; CHO, 37C, 2HR
T4 construct: purchased Eurofins DiscoverX (PathHunter gpcrMAX)
T4 sequence (P49683 1-370): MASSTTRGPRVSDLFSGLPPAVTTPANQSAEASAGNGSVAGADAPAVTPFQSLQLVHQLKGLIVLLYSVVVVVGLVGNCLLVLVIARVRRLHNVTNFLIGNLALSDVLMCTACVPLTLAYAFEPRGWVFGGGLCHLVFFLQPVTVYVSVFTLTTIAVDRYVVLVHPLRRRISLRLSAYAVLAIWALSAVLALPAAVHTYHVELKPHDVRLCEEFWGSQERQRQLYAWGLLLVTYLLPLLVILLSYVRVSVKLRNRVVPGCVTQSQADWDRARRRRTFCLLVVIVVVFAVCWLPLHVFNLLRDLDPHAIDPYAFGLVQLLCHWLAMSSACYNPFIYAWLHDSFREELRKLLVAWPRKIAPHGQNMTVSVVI

RXFP3 = target: T5, RXFP3 (Homo sapiens, UniProt Q9NSD7); details: screen, control agonist; CHO, 37C, 2HR
T5 construct: purchased Eurofins DiscoverX (PathHunter gpcrMAX)
T5 sequence (Q9NSD7 1-469): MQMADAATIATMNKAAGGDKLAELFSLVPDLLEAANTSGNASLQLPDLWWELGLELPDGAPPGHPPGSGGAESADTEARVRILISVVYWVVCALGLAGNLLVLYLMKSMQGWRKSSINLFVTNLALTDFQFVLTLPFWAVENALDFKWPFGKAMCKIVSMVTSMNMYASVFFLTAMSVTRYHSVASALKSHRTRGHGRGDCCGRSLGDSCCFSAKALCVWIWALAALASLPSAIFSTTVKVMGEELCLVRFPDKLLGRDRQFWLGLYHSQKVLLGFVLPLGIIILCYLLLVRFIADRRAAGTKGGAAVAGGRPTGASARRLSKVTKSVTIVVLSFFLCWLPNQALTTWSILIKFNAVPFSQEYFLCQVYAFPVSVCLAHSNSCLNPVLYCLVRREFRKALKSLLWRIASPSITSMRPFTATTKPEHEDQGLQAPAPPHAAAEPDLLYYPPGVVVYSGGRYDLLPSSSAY

TACR3 = target: T6, TACR3 (Homo sapiens, UniProt P29371); details: screen, control agonist; CHO, 37C, 2HR
T6 construct: purchased Eurofins DiscoverX (PathHunter gpcrMAX)
T6 sequence (P29371 1-465): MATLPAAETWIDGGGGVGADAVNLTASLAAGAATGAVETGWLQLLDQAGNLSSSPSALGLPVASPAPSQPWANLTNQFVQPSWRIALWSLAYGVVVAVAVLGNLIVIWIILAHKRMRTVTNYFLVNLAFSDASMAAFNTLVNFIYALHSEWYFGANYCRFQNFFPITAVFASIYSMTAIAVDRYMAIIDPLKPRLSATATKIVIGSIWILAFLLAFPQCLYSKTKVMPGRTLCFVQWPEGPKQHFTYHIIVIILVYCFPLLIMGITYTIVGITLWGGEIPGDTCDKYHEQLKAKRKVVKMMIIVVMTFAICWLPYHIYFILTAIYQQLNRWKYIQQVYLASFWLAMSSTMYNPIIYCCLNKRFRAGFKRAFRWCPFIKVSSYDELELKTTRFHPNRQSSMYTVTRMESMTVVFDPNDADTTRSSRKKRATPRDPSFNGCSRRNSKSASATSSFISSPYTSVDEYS

PTHR2 = target: T7, PTHR2 (Homo sapiens, UniProt P49190); details: screen, control agonist; CHO, 37C, 2HR
T7 construct: purchased Eurofins DiscoverX (PathHunter gpcrMAX)

SSTR3 = target: T8, SSTR3 (Homo sapiens, UniProt P32745); details: screen, control agonist; CHO, 37C, 2HR
T8 construct: purchased Eurofins DiscoverX (PathHunter gpcrMAX)

PROKR1 = target: T9, PROKR1 (Homo sapiens, UniProt Q8TCW9); details: screen, control agonist; CHO, 37C, 2HR
T9 construct: purchased Eurofins DiscoverX (PathHunter gpcrMAX)

PROKR2 = target: T10, PROKR2 (Homo sapiens, UniProt Q8NFJ6); details: screen, control agonist; CHO, 37C, 2HR
T10 construct: purchased Eurofins DiscoverX (PathHunter gpcrMAX)

C5AR1 = target: T11, C5AR1 (Homo sapiens, UniProt P21730); details: screen, control agonist; CHO, RT, 2HR
T11 construct: purchased Eurofins DiscoverX (PathHunter gpcrMAX)
T11 sequence (P21730 1-350): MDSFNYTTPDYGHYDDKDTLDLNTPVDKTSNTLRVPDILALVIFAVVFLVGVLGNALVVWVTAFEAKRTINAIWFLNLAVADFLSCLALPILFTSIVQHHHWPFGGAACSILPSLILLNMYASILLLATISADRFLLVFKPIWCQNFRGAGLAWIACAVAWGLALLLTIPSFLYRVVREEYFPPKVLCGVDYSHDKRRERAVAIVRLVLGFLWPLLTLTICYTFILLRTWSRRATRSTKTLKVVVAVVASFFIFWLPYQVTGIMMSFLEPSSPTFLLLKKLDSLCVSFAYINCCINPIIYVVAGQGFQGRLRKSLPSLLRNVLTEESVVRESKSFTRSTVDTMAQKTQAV

C5L2 = target: T12, C5L2 (Homo sapiens, UniProt Q9P296); details: screen, control agonist; CHO, 37C, 2HR
T12 construct: purchased Eurofins DiscoverX (PathHunter gpcrMAX)
T12 sequence (Q9P296 whole entry): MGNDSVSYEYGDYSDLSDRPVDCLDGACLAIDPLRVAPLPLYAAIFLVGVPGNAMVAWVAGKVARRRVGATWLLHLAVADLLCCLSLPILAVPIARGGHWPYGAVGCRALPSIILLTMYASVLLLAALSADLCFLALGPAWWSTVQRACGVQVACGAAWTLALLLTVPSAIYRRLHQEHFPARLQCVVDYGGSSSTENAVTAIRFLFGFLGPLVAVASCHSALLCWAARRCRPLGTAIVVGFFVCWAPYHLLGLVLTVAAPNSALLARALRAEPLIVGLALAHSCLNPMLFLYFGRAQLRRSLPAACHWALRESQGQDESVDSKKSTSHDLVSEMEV

T10 sequence (Q8NFJ6 whole entry): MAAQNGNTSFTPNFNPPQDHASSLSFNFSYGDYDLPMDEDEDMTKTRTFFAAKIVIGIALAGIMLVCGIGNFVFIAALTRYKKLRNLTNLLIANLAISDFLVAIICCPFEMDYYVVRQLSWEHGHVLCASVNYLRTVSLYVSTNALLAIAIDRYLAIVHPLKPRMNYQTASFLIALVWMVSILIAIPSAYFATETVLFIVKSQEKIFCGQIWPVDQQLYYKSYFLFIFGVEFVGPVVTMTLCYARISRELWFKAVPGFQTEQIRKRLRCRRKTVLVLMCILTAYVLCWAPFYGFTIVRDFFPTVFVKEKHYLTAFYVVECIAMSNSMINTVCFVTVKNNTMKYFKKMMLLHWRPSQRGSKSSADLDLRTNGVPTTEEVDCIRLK
T8 sequence (P32745 whole entry): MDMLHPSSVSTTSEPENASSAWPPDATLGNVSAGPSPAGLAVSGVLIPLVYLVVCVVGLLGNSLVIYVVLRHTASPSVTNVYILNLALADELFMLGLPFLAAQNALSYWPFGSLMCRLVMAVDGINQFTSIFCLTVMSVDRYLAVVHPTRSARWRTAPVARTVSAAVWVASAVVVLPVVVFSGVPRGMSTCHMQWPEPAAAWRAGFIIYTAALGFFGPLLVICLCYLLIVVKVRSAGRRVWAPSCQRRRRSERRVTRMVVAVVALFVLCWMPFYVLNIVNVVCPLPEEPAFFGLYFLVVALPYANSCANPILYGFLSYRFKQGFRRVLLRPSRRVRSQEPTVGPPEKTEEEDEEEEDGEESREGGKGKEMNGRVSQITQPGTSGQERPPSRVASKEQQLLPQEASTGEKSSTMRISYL
T1 sequence (P46663 whole entry): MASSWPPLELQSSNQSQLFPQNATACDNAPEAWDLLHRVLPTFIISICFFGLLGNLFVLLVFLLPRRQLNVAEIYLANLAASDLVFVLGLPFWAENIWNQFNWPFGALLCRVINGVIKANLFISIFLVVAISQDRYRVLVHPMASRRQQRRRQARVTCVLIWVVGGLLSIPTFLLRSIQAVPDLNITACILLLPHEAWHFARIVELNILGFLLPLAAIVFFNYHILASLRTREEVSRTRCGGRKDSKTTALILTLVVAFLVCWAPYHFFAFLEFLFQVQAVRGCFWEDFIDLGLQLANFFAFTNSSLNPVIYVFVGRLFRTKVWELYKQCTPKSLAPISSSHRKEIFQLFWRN
T7 sequence (P49190 25-550): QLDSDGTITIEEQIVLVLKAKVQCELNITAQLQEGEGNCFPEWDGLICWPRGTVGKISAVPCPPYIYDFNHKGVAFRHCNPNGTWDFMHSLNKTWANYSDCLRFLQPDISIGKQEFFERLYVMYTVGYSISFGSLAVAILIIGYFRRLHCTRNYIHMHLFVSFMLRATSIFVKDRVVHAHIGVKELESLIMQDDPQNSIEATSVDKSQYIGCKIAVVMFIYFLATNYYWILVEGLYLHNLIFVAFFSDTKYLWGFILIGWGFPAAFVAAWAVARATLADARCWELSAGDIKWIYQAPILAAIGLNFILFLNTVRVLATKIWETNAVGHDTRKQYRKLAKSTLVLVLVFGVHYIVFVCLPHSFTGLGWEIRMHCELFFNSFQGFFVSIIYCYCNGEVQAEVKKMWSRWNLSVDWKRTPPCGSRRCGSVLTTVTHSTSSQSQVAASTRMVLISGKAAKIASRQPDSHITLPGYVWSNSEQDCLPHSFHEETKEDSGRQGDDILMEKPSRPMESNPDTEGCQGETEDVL
T9 sequence (Q8TCW9 whole entry): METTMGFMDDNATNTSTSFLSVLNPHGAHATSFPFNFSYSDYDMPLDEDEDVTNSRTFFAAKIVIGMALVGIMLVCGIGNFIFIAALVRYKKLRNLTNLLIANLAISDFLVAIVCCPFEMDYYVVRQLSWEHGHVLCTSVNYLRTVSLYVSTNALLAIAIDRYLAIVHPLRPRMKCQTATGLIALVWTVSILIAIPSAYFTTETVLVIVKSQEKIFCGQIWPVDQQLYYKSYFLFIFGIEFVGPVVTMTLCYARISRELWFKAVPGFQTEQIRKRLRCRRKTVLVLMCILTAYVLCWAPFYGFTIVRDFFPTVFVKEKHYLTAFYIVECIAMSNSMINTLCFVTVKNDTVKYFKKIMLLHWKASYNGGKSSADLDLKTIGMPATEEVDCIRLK

In the case of LDA-Bradykinin, the EC80 (BDKRB1) is reported as 4.67 nM.

“Neuropeptide S (SFRNGVGTGMKKTSFQRAKS; Neuropeptide S; UniProt P0C0P6 70-89, looked up) [control agonist]” showed an EC80 (NPSR1b) of 45.7 nM.

Molecule Peptide YY: control agonist has an EC80 (NPY1R) of 4.18 nM.

Molecule PrRP-31 has an EC80 (PRLHR) of 1.8 nM.

With Relaxin-3 the EC80 (RXFP3) was 62.7 nM.

In the case of Substance P, the EC80 (TACR3) is reported as 80.4 nM.

TIP-39 gave an EC80 (PTHR2) of 4.8 nM.

With Tyr-SST 14 the EC80 (SSTR3) was 54.2 nM.

B1: EG VEGF: control agonist for PROKR1 and PROKR2 (protein, UniProt P58294 20-105, looked up)
Prokineticin-1: AVITGACERDVQCGAGTCCAISLWLRGLRMCTPLGREGEECHPGSHKVPFFRKRKHHTCPCLPNLLCSRFPDGRYRCSMDLKNINF
B1 gave an EC80 (PROKR1) of 53.3 nM and an EC80 (PROKR2) of 30.2 nM.

B2: Complement C5a: control agonist (protein, UniProt P01031 678-751, looked up)
C5a anaphylatoxin: TLQKKIEEIAAKYKHSVVKKCCYDGACVNNDETCEQRAARISLGPRCIKAFTECCVVASQLRANISHKDMQLGR
modifications: C5a anaphylatoxin
notes: control agonist
With B2 the EC80 (C5AR1) was 3.6 nM and the EC80 (C5L2) was 2.7 nM.
